Consider one substance from paper PMC4003566.

For the assay, the target named is human α7 nAChR TM domain (human). The experiment in a line: SEC-MALS.

For orientation: stoichiometry N means the number of molecules, sites or subunits per partner or assembly. In the case of “human α7 nAChR TM domain (domain or fragment)”, the stoichiometry N is 5.
